From paper PMC8932414, “Latent TGFβ complexes are transglutaminase cross-linked to fibrillin to facilitate TGFβ activation” (Matrix Biology, 2022)

Target: T1, CT1-SLC (LTBP1-CT region disulphide bonded to the TGFβ1 small latent complex) (UniProt Q14766 1347-1721; P01137 30-390, disulphide bonded to the SLC)
T1 construct: TGFβ1 small latent complex (proTGFβ1: prodomain LAP and growth factor); also called LTBP1-SLC; truncated version of the LLC; source: HEK293T, co-expressed from pBUD4.1, purified from serum free media (Anti-Flag M2 resin, SEC); not shown: Twin-Strep (chain inferred)
T1 sequence (Q14766 1347-1721, chain 1 of 2): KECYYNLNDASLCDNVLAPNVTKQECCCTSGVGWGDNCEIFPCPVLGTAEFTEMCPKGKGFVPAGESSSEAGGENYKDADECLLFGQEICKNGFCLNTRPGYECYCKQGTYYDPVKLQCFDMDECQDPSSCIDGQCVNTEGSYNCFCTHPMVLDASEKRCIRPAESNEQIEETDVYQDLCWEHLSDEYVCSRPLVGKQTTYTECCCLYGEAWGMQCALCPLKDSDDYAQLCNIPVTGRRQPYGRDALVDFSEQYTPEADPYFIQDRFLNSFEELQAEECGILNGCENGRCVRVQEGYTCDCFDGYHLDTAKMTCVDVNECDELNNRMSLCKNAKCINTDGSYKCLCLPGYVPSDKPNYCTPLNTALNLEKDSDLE
T1 sequence (P01137 30-390, chain 2 of 2): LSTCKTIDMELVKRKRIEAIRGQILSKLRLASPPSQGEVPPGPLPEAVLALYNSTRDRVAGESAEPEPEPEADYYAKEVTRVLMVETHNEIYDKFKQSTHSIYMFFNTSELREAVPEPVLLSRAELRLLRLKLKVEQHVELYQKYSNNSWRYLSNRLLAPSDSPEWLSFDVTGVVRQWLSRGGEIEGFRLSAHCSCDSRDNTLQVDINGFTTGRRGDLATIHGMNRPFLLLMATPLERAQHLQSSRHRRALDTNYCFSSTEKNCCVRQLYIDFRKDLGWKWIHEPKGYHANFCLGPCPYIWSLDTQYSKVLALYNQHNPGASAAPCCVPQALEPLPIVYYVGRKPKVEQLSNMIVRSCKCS
Test: BLI; OctetRED96; biotinylated CT1-SLC on streptavidin biosensors, PF3 100-6.25 nM; 10 mM HEPES, 150 NaCl, pH 7.4, 0.005% Tween-20, 25 °C; 1:1 Langmuir fit
Settings: both partners purified

B1: fibrillin-1 N-terminal region PF3 (domain or fragment)
chain: not shown
notes: fibrillin-1, N-terminal region called PF3; P35555-1 is printed for the AlphaFold input (115-287); PF1 and PF2 are two over-lapping constructs within this region; not verified; also called fibrillin1-PF3; fibrillin PF3 fragment
Q: How did the Kd turn out when B1 was run?
A: Its Kd is ~6 nM.
